Experiments:
[1] = target: T1, recombinant human heparanase (Homo sapiens, UniProt Q9Y251); test: ELISA binding to directly coated recombinant human heparanase
T1 construct: Heparanase 8 and 50 kDa sub-units were cloned into pacGP67 as Sma 1-EcoR1 fragments; made in house; host or cells: Hi5 insect cells, baculovirus (pFastBac Dual)
T1 sequence (Q9Y251 158-543 limits assumed): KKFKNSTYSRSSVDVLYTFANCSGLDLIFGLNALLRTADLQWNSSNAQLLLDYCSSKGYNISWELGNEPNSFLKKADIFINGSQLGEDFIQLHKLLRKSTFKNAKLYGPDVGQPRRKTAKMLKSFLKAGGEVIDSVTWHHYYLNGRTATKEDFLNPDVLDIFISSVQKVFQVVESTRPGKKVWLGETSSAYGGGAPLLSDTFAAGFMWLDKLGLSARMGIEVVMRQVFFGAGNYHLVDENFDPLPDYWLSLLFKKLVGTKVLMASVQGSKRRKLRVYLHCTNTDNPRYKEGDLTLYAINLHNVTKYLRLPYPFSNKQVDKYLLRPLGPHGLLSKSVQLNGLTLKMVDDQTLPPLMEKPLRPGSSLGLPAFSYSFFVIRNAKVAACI
T1 sequence (Q9Y251 36-109 limits assumed): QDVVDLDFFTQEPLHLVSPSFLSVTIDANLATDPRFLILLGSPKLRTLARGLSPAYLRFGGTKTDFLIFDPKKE
Method: (§1) Titres of antibodies from Campaigns 1 and 2 were determined in an ELISA. Costar 3368 medium binding plates were coated directly with recombinant human heparanase or plates were coated with Rabbit anti-heparanase antibody (Raybiotech, Cat. IP-14-155) to capture recombinant heparanase. Directly coated heparanase was detected in three separate plates by mouse (InSight Cat. INS-26-1-0000), goat (Santa Cruz, Cat. sc26136) or rabbit (Raybiotech, Cat. IP-14-155) anti-heparanase antibodies, and quantified using appropriate secondary antibodies. Antibody captured heparanase was detected using mouse anti-heparanase (Insight Cat. INS-26-1-0000). At the end of the immunisation program, fusions were performed using mouse myeloma cells and lymphocytes isolated from the spleens and lymph nodes of the immunised mice by means of electroporation, as described in Example 2.
(§2) Initial screening to detect antibodies binding to human heparanase in both direct coating and antibody capture ELISAs as described above identified 800 hybridomas for further testing; 535 IgG2 from Campaign 1 and 2 and 265 IgG4 from Campaign 2. Enzyme inhibition assays and cross species binding to cynomolgus and murine heparanase, in an antibody capture ELISA, identifed 12 antibodies that were taken forward for sub-cloning to provide purified antibodies for further analysis. Subsequently, confirmation of activity against human heparanase (FIGS. 3 and 4) and inhibition of recombinant cynomolgus and murine heparanase activity in the HS-cryptate degradation assay (FIG. 5a-c), together with sequence analysis, identified 8 antibodies that are described in the table below.

[2] = target: T2, recombinant heparanase captured with rabbit anti-heparanase antibody (Homo sapiens, UniProt Q9Y251); test: ELISA binding to antibody-captured heparanase; settings: antibody capture
T2 construct: Heparanase 8 and 50 kDa sub-units were cloned into pacGP67 as Sma 1-EcoR1 fragments; made in house; host or cells: Hi5 insect cells, baculovirus (pFastBac Dual)
T2 sequence (Q9Y251 158-543 limits assumed): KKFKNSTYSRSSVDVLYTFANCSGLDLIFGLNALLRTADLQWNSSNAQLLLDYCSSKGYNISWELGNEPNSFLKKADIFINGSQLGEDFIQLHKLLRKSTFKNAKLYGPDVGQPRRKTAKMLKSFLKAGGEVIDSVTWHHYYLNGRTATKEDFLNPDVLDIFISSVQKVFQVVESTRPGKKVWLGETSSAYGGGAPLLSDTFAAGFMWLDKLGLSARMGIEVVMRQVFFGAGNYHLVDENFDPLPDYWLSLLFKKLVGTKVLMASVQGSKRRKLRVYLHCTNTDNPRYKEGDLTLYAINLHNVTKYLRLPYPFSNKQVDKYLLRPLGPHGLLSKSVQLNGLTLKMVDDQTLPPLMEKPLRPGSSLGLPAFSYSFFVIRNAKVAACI
T2 sequence (Q9Y251 36-109 limits assumed): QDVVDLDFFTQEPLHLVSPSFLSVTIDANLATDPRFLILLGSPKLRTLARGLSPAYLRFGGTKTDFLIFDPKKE
Method: as §1, §2

[3] = target: T3, cell surface heparanase of parental MCF7 or MCF7-Hpa1#19 cells (Homo sapiens, UniProt Q9Y251); test: Cell surface heparanase activity assay; format: cell-based; settings: 5 or 25 μg per ml
T3 construct: an expression construct comprising a full-length human heparanase cDNA under the control of a CMV promoter; expressed in transfected cells; host or cells: MCF7-Hpa1#19 (pCR3.1 vector, CMV promoter); parental MCF7 cells run alongside carry only low endogenous heparanase
T3 sequence (Q9Y251 158-543): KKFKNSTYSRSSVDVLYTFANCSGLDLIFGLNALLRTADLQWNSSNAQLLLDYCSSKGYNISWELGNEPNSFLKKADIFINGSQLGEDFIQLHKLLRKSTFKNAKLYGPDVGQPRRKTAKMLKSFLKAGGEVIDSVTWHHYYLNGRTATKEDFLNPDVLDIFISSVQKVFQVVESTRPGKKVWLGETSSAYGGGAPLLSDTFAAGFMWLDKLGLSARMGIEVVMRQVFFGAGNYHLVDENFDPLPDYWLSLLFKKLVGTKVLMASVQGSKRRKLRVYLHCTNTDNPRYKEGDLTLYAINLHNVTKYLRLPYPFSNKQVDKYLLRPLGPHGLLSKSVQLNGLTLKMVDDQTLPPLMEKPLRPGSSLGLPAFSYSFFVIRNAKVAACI
T3 sequence (Q9Y251 36-109): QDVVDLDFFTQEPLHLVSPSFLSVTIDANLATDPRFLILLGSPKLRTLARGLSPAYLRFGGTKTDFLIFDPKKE
Method: Cell surface heparanase activity was measured by a modification of the methodology used in the recombinant enzyme screen (Example 4). Parental MCF7 or MCF7-Hpa1#19 cells were cultured in non-tissue culture (non-adherent) 96-well plates, seeded at 10^6 cells per well. After overnight incubation at 37° C. anti-heparanase 10E9.1 or control IgG2 (Sigma Cat. 1504-1MG) antibodies were added to the cells, to a final concentration of 0.04-25 μg per ml, and incubated for 1 hr at room temperature. Thereafter Biotin Heparan Sulfate Europium Criptate (CisBio Cat. No. 61BHSKAA) was added to the cells (final concentration 20 ng per ml) and incubated at 37° C. for 1 hr. Degradation of the heparan sulfate substrate was determined following the addition of Streptavidin-XL665 (final concentration 250 ng per ml; CisBio Cat. No. 611SAXLA) to the cells and fluorescence measured using excitation at 330 nm and emission at 670 nm. In the absence of anti-heparanase antibody or in the presence of control IgG2, the minimum fluorescence at 670 nm is the result of degradation of heparan sulfate (see FIG. 10).

[4] = test system: MDA MB231-Hpa1#4 cells; test: Heparanase expression in cells cultured with antibody (Western blot); format: cell-based, human; settings: 25 μg per ml antibody, 72 hrs, compared to untreated or IgG2 control
Method: MDA MB231-Hpa1#4 cells were cultured in the presence of 25 μg per ml anti-human heparanase antibody or control IgG2 antibody (Sigma Cat. No. 1504-1MG) for 72 hrs. Following the removal of culture medium, protein extracts were prepared from the cells in 100 μl RIPA buffer and separated on […] gels and transferred to nitrocellulose as described above. Western blots were probed with an anti-heparanase antibody that detected only pro-heparanase (SantaCruz Cat. No. SC25825).

[5] = test system: B16F10 AP3 murine melanoma cells; test: FACS binding to cell surface heparanase, B16F10 AP3; format: cell-based; settings: 5 or 10 μg per ml, 2 hrs at 37° C.
Method: (§3) Although heparanase is found as a secreted protein, a proportion of heparanase is found in conjunction with cell surface heparan sulfate. The ability of anti-human heparanase antibodies to bind to cell surface heparanase was tested in a FACS assay. HT1080 human fibrosarcoma cells, HCT116 human colorectal tumour cells and B16F10 AP3 murine melanoma cells were each seeded into 6-well plates and cultured for 48 hrs prior to the addition of anti-heparanase antibody 10E9.1 or control IgG2 antibody (Sigma Cat. No. 1504-1MG). Antibodies were added to the cells to a final concentration of 5 or 10 μg per ml and incubated with the cells for 2 hrs at 37° C. The cells were then washed with phosphate buffered saline (PBS) and harvested by incubation with trypsin. The cells were pelleted by centrifugation and resuspended in 0.5 ml PBS, 0.1% BSA containing 1/200 dilution of AlexaFluor 488 anti-human IgG. The cells were incubated for 1 hr at room temperature, washed with PBS/BSA, resuspended in PBS and analysed by FACS. […] The differences likely reflect a lower affinity for murine heparanase in addition to any differences in absolute heparanase expression.

[6] = test system: HT1080 human fibrosarcoma cells; test: FACS binding to cell surface heparanase, HT1080; format: cell-based; settings: 5 or 10 μg per ml, 2 hrs at 37° C.
Method: as §3

[7] = test system: cynomolgus heparanase; test: Cross species capture ELISA, cynomolgus heparanase; format: binding; settings: min 0.06, max 1.5 OD units
Method: Initially, cross species binding to human, murine and cynomolgus heparanase was determined in an ELISA assay in which heparanase was captured onto plates using a rabbit anti-heparanase antibody (Raybiotech, Cat. IP-14-155). Exhaustive supernatants were added to the plates at a final dilution of 1:5 and bound antibody detected with a rabbit anti-human IgG Fc.

Binding to direct coated heparanase [1]: 0.2 OD units | Binding to captured heparanase [2]: 0.87 OD units | Binding to heparanase Cyno [7]: 1.4 OD units
B1: 10E9.1: fully human anti-heparanase monoclonal antibody, G2κ; VH SEQ ID NO 2, VL SEQ ID NO 4; ATCC PTA-9489 (antibody, listed as Homo Sapiens, V domains shown)
VH: QVQLVQSGAEVKKPGASVKVSCKVSGYSLTELSIHWVRQAPGKGLEWMGGFDPEDGEIIFAQKFQGRVTLTEDISLDTAYMEVSSLRSEDTAVYYCATEGHDSGDYVGYYYYGLDVWGQGTTVTVSS
VL: DIQMTQSPSSLSASVGDRVTITCRASQDIRNFLAWYQQKPGKLPKLLIYAASTLQSGVPSRFSGSGSGTDFTLTISSLQPEDVASYYCQSHNSVPFTFGPGTKVDIR
notes: fully human anti-heparanase monoclonal antibody, G2κ; ATCC PTA-9489
Inhibition of cell surface heparanase activity [3]: complete inhibition of cell surface heparanase activity | Inhibition of heparanase expression [4]: significant inhibition of heparanase expression | Binding to cell surface by FACS [5]: bind to the cell surface of B16F10 AP3 murine melanoma cells | Binding to cells by FACS [6]: bind extensively
